Reference: US20230235013A1 (MABSOLVE, published 2023)

T1: human FcγRIIA (R131, Sino Biological Cat. No. 10374-H08H) (human, UniProt P12318 34-218)
T1 construct: bought; also called human FcγRIIa R131 allele; FcγRII allele R131
T1 sequence (looked up): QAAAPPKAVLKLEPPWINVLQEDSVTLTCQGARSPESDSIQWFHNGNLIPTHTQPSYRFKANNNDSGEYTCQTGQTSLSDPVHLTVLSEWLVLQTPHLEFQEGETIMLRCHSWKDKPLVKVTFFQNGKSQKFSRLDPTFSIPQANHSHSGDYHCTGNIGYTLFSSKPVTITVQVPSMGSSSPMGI


Tests used:
[1] = biological target: T2, Histidine-tagged recombinant human FcγRI (CD64) (human, UniProt P12314 16-288); assay: SPR, captured His-receptor
T2 construct: bought; also called Sino Biological Cat. No. 12056-H08H

[2] = biological target: T3, human FcγRIIIB (NA2 allotype, Sino Biological Cat. No. 11046-H08H) (human, UniProt O75015 17-200); assay: SPR, captured His-receptor
T3 construct: bought; also called human FcγRIIIb NA2 allele

[3] = biological target: T1, human FcγRIIA (R131, Sino Biological …); assay: SPR, captured His-receptor
[4] = biological target: T2, Histidine-tagged recombinant human …; assay: SPR, culture supernatant, captured His-FcγRI;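 further: biacore T200 SPR at 25 °C, anti-His capture, supernatants of HEK293 cells expressing IgG1 Fc variants injected 1 min, reference-subtracted response read 55 s after injection start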

Row | Binder | binding result [1] | binding result [2] | binding result [3] | Mean binding response [4] [RU]
1 | anti-CD20 mouse IgG2a L234Q/L235S/G236R (antibody, copies: 2 + 2) heavy: QVQLQQPGAELVKPGASVKMSCKASGYTFTSYNMHWVKQTPGRGLEWIGAIYPGNGDTSYNQKFKGKATLTADKSSSTAYMQLSSLTSEDSAVYYCARSTYYGGDWYFNVWGAGTTVTVSSAKTTAPSVYPLAPVCGDTTGSSVTLGCLVKGYFPEPVTLTWNSGSLSSGVHTFPAVLQSDLYTLSSSVTVTSSTWPSQSITCNVAHPASSTKVDKKIEPRGPTIKPCPPCKCPAPNQSRGPSVFIFPPKIKDVLMISLSPIVTCVVVDVSEDDPDVQISWFVNNVEVHTAQTQTHREDYNSTLRVVSALPIQHQDWMSGKEFKCKVNNKDLPAPIERTISKPKGSVRAPQVYVLPPPEEEMTKKQVTLTCMVTDFMPEDIYVEWTNNGKTELNYKNTEPVLDSDGSYFMYSKLRVEKKNWVERNSYSCSVVHEGLHNHHTTKSFSRTPGK light: QIVLSQSPAILSASPGEKVTMTCRASSSVSYIHWFQQKPGSSPKPWIYATSNLASGVPVRFSGSGSGTSYSLTISRVEAEDAATYYCQQWTSNPPTFGGGTKLEIKRADAAPTVSIFPPSSEQLTSGGASVVCFLNNFYPKDINVKWKIDGSERQNGVLNSWTDQDSKDSTYSMSSTLTLTKDEYERHNSYTCEATHKTSTSPIVKSFNRNEC | no binding (tested: 100 µg/mL) | no binding (tested: 100 µg/mL) | no binding (tested: 100 µg/mL) | –
2 | anti-CD20 human IgG1 L234Q/L235S/G236R (antibody, also called 10.77; copies: 2 + 2) heavy: QVQLQQPGAELVKPGASVKMSCKASGYTFTSYNMHWVKQTPGRGLEWIGAIYPGNGDTSYNQKFKGKATLTADKSSSTAYMQLSSLTSEDSAVYYCARSTYYGGDWYFNVWGAGTTVTVSSASTKGPSVFPLAPSSKSTSGGTAALGCLVKDYFPEPVTVSWNSGALTSGVHTFPAVLQSSGLYSLSSVVTVPSSSLGTQTYICNVNHKPSNTKVDKKVEPKSCDKTHTCPPCPAPEQSRGPSVFLFPPKPKDTLMISRTPEVTCVVVDVSHEDPEVKFNWYVDGVEVHNAKTKPREEQYNSTYRVVSVLTVLHQDWLNGKEYKCKVSNKALPAPIEKTISKAKGQPREPQVYTLPPSRDELTKNQVSLTCLVKGFYPSDIAVEWESNGQPENNYKTTPPVLDSDGSFFLYSKLTVDKSRWQQGNVFSCSVMHEALHNHYTQKSLSLSPGK light: QIVLSQSPAILSASPGEKVTMTCRASSSVSYIHWFQQKPGSSPKPWIYATSNLASGVPVRFSGSGSGTSYSLTISRVEAEDAATYYCQQWTSNPPTFGGGTKLEIKRTVAAPSVFIFPPSDEQLKSGTASVVCLLNNFYPREAKVQWKVDNALQSGNSQESVTEQDSKDSTYSLSSTLTLSKADYEKHKVYACEVTHQGLSSPVTKSFNRGEC | – | no binding (tested: 100 µg/mL) | no binding (tested: 100 µg/mL) | 11.9
3 | anti-CD20 human IgG4 L234Q/L235S/G236R (with S228P) (antibody, copies: 2 + 2) heavy: QVQLQQPGAELVKPGASVKMSCKASGYTFTSYNMHWVKQTPGRGLEWIGAIYPGNGDTSYNQKFKGKATLTADKSSSTAYMQLSSLTSEDSAVYYCARSTYYGGDWYFNVWGAGTTVTVSSASTKGPSVFPLAPCSRSTSESTAALGCLVKDYFPEPVTVSWNSGALTSGVHTFPAVLQSSGLYSLSSVVTVPSSSLGTKTYTCNVDHKPSNTKVDKRVESKYGPPCPPCPAPEQSRGPSVFLFPPKPKDTLMISRTPEVTCVVVDVSQEDPEVQFNWYVDGVEVHNAKTKPREEQFNSTYRVVSVLTVLHQDWLNGKEYKCKVSNKGLPSSIEKTISKAKGQPREPQVYTLPPSQEEMTKNQVSLTCLVKGFYPSDIAVEWESNGQPENNYKTTPPVLDSDGSFFLYSRLTVDKSRWQEGNVFSCSVMHEALHNHYTQKSLSLSLGK light: QIVLSQSPAILSASPGEKVTMTCRASSSVSYIHWFQQKPGSSPKPWIYATSNLASGVPVRFSGSGSGTSYSLTISRVEAEDAATYYCQQWTSNPPTFGGGTKLEIKRTVAAPSVFIFPPSDEQLKSGTASVVCLLNNFYPREAKVQWKVDNALQSGNSQESVTEQDSKDSTYSLSSTLTLSKADYEKHKVYACEVTHQGLSSPVTKSFNRGEC | no binding (tested: 100 µg/mL) | no binding (tested: 100 µg/mL) | no binding (tested: 100 µg/mL) | –
4 | anti-CD20 human IgG1 L234Q/L235S/G236R/T250Q/M428L (antibody, also called 10.146; copies: 2 + 2) heavy: QVQLQQPGAELVKPGASVKMSCKASGYTFTSYNMHWVKQTPGRGLEWIGAIYPGNGDTSYNQKFKGKATLTADKSSSTAYMQLSSLTSEDSAVYYCARSTYYGGDWYFNVWGAGTTVTVSSASTKGPSVFPLAPSSKSTSGGTAALGCLVKDYFPEPVTVSWNSGALTSGVHTFPAVLQSSGLYSLSSVVTVPSSSLGTQTYICNVNHKPSNTKVDKKVEPKSCDKTHTCPPCPAPEQSRGPSVFLFPPKPKDQLMISRTPEVTCVVVDVSHEDPEVKFNWYVDGVEVHNAKTKPREEQYNSTYRVVSVLTVLHQDWLNGKEYKCKVSNKALPAPIEKTISKAKGQPREPQVYTLPPSRDELTKNQVSLTCLVKGFYPSDIAVEWESNGQPENNYKTTPPVLDSDGSFFLYSKLTVDKSRWQQGNVFSCSVLHEALHNHYTQKSLSLSPGK light: QIVLSQSPAILSASPGEKVTMTCRASSSVSYIHWFQQKPGSSPKPWIYATSNLASGVPVRFSGSGSGTSYSLTISRVEAEDAATYYCQQWTSNPPTFGGGTKLEIKRTVAAPSVFIFPPSDEQLKSGTASVVCLLNNFYPREAKVQWKVDNALQSGNSQESVTEQDSKDSTYSLSSTLTLSKADYEKHKVYACEVTHQGLSSPVTKSFNRGEC | no binding (tested: 100 µg/mL) | no binding (tested: 100 µg/mL) | no binding (tested: 100 µg/mL) | –
5 | anti-CD20 human IgG1 L234S/L235V/G236R (antibody, also called 2-53; copies: 2 + 2) heavy: QVQLQQPGAELVKPGASVKMSCKASGYTFTSYNMHWVKQTPGRGLEWIGAIYPGNGDTSYNQKFKGKATLTADKSSSTAYMQLSSLTSEDSAVYYCARSTYYGGDWYFNVWGAGTTVTVSSASTKGPSVFPLAPSSKSTSGGTAALGCLVKDYFPEPVTVSWNSGALTSGVHTFPAVLQSSGLYSLSSVVTVPSSSLGTQTYICNVNHKPSNTKVDKKVEPKSCDKTHTCPPCPAPESVRGPSVFLFPPKPKDTLMISRTPEVTCVVVDVSHEDPEVKFNWYVDGVEVHNAKTKPREEQYNSTYRVVSVLTVLHQDWLNGKEYKCKVSNKALPAPIEKTISKAKGQPREPQVYTLPPSRDELTKNQVSLTCLVKGFYPSDIAVEWESNGQPENNYKTTPPVLDSDGSFFLYSKLTVDKSRWQQGNVFSCSVMHEALHNHYTQKSLSLSPGK light: QIVLSQSPAILSASPGEKVTMTCRASSSVSYIHWFQQKPGSSPKPWIYATSNLASGVPVRFSGSGSGTSYSLTISRVEAEDAATYYCQQWTSNPPTFGGGTKLEIKRTVAAPSVFIFPPSDEQLKSGTASVVCLLNNFYPREAKVQWKVDNALQSGNSQESVTEQDSKDSTYSLSSTLTLSKADYEKHKVYACEVTHQGLSSPVTKSFNRGEC | no binding (tested: 100 µg/mL) | no binding (tested: 100 µg/mL) | no binding (tested: 100 µg/mL) | –

Continued, values first:

Row | binding result [1] | binding result [2] | binding result [3] | Mean binding response [4] [RU] | Binder
6 | binds | no binding (tested: 100 µg/mL) | no binding (tested: 100 µg/mL) | – | anti-CD20 human IgG2 L234Q/L235S (antibody, also called 11.144; copies: 2 + 2) heavy: QVQLQQPGAELVKPGASVKMSCKASGYTFTSYNMHWVKQTPGRGLEWIGAIYPGNGDTSYNQKFKGKATLTADKSSSTAYMQLSSLTSEDSAVYYCARSTYYGGDWYFNVWGAGTTVTVSSASTKGPSVFPLAPCSRSTSESTAALGCLVKDYFPEPVTVSWNSGALTSGVHTFPAVLQSSGLYSLSSVVTVPSSNFGTQTYTCNVDHKPSNTKVDKTVERKCCVECPPCPAPPQSGPSVFLFPPKPKDTLMISRTPEVTCVVVDVSHEDPEVQFNWYVDGVEVHNAKTKPREEQFNSTFRVVSVLTVVHQDWLNGKEYKCKVSNKGLPAPIEKTISKTKGQPREPQVYTLPPSREEMTKNQVSLTCLVKGFYPSDIAVEWESNGQPENNYKTTPPMLDSDGSFFLYSKLTVDKSRWQQGNVFSCSVMHEALHNHYTQKSLSLSPGK light: QIVLSQSPAILSASPGEKVTMTCRASSSVSYIHWFQQKPGSSPKPWIYATSNLASGVPVRFSGSGSGTSYSLTISRVEAEDAATYYCQQWTSNPPTFGGGTKLEIKRTVAAPSVFIFPPSDEQLKSGTASVVCLLNNFYPREAKVQWKVDNALQSGNSQESVTEQDSKDSTYSLSSTLTLSKADYEKHKVYACEVTHQGLSSPVTKSFNRGEC
7 | – | no binding (tested: 100 µg/mL) | no binding (tested: 100 µg/mL) | – | anti-CD20 human IgG1 L234A/L235A/P329G (LALAPG reference) (antibody, also called 2-66; copies: 2 + 2) heavy: not shown light: QIVLSQSPAILSASPGEKVTMTCRASSSVSYIHWFQQKPGSSPKPWIYATSNLASGVPVRFSGSGSGTSYSLTISRVEAEDAATYYCQQWTSNPPTFGGGTKLEIKRTVAAPSVFIFPPSDEQLKSGTASVVCLLNNFYPREAKVQWKVDNALQSGNSQESVTEQDSKDSTYSLSSTLTLSKADYEKHKVYACEVTHQGLSSPVTKSFNRGEC
8 | no binding (tested: 100 µg/mL) | no binding (tested: 100 µg/mL) | no binding (tested: 100 µg/mL) | – | anti-CD20 human IgG1 L234Q/L235S/G236R/M252Y/S254T/T256E (antibody, also called 10.145; copies: 2 + 2) heavy: QVQLQQPGAELVKPGASVKMSCKASGYTFTSYNMHWVKQTPGRGLEWIGAIYPGNGDTSYNQKFKGKATLTADKSSSTAYMQLSSLTSEDSAVYYCARSTYYGGDWYFNVWGAGTTVTVSSASTKGPSVFPLAPSSKSTSGGTAALGCLVKDYFPEPVTVSWNSGALTSGVHTFPAVLQSSGLYSLSSVVTVPSSSLGTQTYICNVNHKPSNTKVDKKVEPKSCDKTHTCPPCPAPEQSRGPSVFLFPPKPKDTLYITREPEVTCVVVDVSHEDPEVKFNWYVDGVEVHNAKTKPREEQYNSTYRVVSVLTVLHQDWLNGKEYKCKVSNKALPAPIEKTISKAKGQPREPQVYTLPPSRDELTKNQVSLTCLVKGFYPSDIAVEWESNGQPENNYKTTPPVLDSDGSFFLYSKLTVDKSRWQQGNVFSCSVMHEALHNHYTQKSLSLSPGK light: QIVLSQSPAILSASPGEKVTMTCRASSSVSYIHWFQQKPGSSPKPWIYATSNLASGVPVRFSGSGSGTSYSLTISRVEAEDAATYYCQQWTSNPPTFGGGTKLEIKRTVAAPSVFIFPPSDEQLKSGTASVVCLLNNFYPREAKVQWKVDNALQSGNSQESVTEQDSKDSTYSLSSTLTLSKADYEKHKVYACEVTHQGLSSPVTKSFNRGEC
